This is an account of results in PMC8110956, “An infection-induced RhoB-Beclin 1-Hsp90 complex enhances clearance of uropathogenic Escherichia coli” (Nature Communications, 2021).

The target in the assay is T1, GST-fused Beclin 1 (human, UniProt Q14457 1-450).
T1 construct: Beclin 1, in pGEX4T-3; also called GST-Beclin 1; source: E. coli BL21 (DE3), purified (Glutathione Sepharose 4B)
The experiment in a line: pull-down; about 1 μg of each purified GST-fused protein combined in 0.8% BSA in PBS at 4 °C overnight; precipitated with anti-RhoB or anti-Beclin 1 antibody (IgG as control) plus protein G Sepharose; western blot. Conditions: both partners purified.

T1 sequence (Q14457 whole entry, the tested form may be a part): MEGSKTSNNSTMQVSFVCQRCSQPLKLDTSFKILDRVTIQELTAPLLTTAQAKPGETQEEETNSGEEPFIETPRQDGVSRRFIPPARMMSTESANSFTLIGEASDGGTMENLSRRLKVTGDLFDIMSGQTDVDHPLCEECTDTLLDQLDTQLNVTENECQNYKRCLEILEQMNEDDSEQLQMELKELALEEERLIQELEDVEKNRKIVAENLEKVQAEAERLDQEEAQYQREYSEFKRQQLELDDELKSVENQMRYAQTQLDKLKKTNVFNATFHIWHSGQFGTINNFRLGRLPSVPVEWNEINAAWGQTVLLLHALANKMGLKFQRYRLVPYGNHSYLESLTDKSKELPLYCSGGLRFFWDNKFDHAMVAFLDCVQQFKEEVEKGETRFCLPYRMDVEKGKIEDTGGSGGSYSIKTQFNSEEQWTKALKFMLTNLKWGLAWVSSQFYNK

B1: GST-RhoB (118–196) (domain or fragment, human, UniProt P62745 118-196, looked up)
chain: KKDLRSDEHVRTELARMKQEPVRTDDGRAMAVRIQAYDYLECSAKTKEGVREVFETATRAALQKRYGSQNGCINCCKVL
notes: source: E. coli BL21 (DE3), purified (Glutathione Sepharose 4B)
Turning to B1, the binding result is listed as “binds”.
